Common to all, as to assay: cell-based or functional assay
In test [1] the target is hCCR9 (human) (UniProt P51686).
The target of test [2] is hCXCR3 (human) (UniProt P49682).
Test [3] deals with T1, hCCR6 (human) (UniProt P51684).
T1 sequence (looked up): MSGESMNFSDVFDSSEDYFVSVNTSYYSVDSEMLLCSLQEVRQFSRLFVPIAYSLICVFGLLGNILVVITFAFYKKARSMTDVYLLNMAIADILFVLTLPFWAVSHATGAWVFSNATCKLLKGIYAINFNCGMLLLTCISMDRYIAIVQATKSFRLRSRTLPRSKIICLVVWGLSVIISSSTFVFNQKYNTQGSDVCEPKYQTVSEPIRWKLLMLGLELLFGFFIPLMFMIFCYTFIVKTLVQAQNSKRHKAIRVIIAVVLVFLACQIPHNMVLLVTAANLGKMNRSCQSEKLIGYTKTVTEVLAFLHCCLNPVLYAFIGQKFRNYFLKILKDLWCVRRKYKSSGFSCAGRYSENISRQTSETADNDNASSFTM

The target in test [4] is hCCR3 (human) (UniProt P51677).
hCCR3 (human), sequence (P51677 whole entry): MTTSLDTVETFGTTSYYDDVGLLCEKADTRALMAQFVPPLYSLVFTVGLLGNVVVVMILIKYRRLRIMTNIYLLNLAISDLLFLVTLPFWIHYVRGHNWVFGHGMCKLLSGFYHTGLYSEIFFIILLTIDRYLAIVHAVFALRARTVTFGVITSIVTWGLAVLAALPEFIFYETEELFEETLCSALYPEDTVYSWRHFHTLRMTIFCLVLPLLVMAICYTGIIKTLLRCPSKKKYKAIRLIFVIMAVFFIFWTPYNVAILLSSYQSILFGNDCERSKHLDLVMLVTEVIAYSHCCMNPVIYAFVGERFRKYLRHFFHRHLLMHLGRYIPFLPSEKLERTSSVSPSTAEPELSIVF

hCCR9 (human), sequence (P51686 whole entry): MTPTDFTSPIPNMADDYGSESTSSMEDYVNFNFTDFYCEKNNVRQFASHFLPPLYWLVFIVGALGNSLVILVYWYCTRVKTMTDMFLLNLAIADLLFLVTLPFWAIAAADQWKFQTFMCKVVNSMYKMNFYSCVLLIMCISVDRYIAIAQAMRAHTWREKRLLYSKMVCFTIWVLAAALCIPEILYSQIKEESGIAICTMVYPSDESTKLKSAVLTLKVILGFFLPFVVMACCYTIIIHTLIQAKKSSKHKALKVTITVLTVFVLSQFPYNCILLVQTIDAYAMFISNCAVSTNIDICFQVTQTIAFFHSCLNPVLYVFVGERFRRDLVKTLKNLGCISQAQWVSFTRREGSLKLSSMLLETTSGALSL
recombinant native MIP-3α, sequence (P78556 27-96 limits assumed): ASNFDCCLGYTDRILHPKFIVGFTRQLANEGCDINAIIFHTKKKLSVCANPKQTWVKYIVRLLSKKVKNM
hCXCR3 (human), sequence (P49682 whole entry): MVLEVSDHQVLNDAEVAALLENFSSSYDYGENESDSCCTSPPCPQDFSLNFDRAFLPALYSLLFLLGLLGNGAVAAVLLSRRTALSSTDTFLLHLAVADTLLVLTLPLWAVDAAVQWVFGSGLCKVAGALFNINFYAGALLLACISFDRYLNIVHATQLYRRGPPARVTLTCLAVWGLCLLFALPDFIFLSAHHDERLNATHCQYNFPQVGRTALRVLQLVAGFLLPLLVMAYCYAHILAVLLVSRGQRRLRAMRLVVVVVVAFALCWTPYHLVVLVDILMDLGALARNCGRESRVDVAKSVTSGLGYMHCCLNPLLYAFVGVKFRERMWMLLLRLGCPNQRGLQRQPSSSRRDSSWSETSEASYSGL
UniProt O15444, sequence (O15444 other isoform, or with tags, fused parts or gaps limits assumed): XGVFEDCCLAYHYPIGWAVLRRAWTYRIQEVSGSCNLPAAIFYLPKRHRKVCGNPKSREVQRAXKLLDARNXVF

In test [1], “biotinTECK(Met to Nleu substitution) (CCL25): TECK derivatised at the ε-amino side chain functionality of Lys72 with PEG-Biotin (from UniProt O15444 25-97) (ligand)” displayed an EC50, agonist activity in an Aequorin assay of 63.6 nM.

Substance “recombinant native IP-10 (from UniProt P02778 22-98) (ligand)” showed an EC50, agonist activity in an Aequorin assay in test [2] of 4.4 nM.

For “recombinant native MIP-3α (from UniProt P78556 27-96) (ligand)”, in test [3], the EC50, agonist activity in an Aequorin assay came out at 1 nM.

“recombinant native TECK (from UniProt O15444 24-150) (ligand)”: in test [1], the EC50, agonist activity in an Aequorin assay is 67.9 nM.

As to “recombinant native eotaxin (from UniProt P51671 24-97) (ligand)”, the EC50, activity in an Aequorin assay (agonist) in test [4] was determined as 10.7 nM.
